Test results reported in article PMC549075.

Molecular target: Lamb brain tubulin (lamb)

B1: HIV-1 Tat protein, Oyi strain (natural protein)
chain: MEPVDPRLEPWKHPGSQPKTASNNCYCKRCCLHCQVCFTKKGLGISYGRKKRRQRRRAPQDSKTHQVSLSKQPASQPRGDPTGPKESKKKVERETETDPED
**Q.** Which results are given for B1?
**A.** ΔOD 350 nm plateau of 15 μM tubulin at 37°C with 8 μM compound: 0.8 ΔOD 350 nm; ΔOD ratio (plateau with 8 μM compound divided by plateau of tubulin alone): 2.63
